Bridges are numbered along the chain shown (N, C = ends). Primed or numbered codes have the meaning given here. The star is where a group is joined. Biotin = O=C1N[C@H]2[C@H](CS[C@H]2CCCCC(=O)*)N1; PEG4′ = amino-PEG4 spacer
Experiments:
[1] = target: human IgG (Chugai Pharmaceutical Co., Ltd.) (human); assay: SPR, BIAcore T200, IgG immobilised; equilibrium value
[2] = target: human IgG (Chugai Pharmaceutical Co., Ltd.) (human); assay: SPR, BIAcore T200, IgG immobilised; 1:1 binding fit

B1: Type I IgG-binding peptide …-NH2 (peptide)
peptide: {Biotin-PEG4′}-GPDCAYHRGELVWCTFH-NH2
modifications: disulfide 4-14
Kd [1]: 10 nM
Kd [2]: 9.1 nM

Source: patent US20240368223A1
